One molecule from patent US20130171170A1 (published 2013) can be followed below.

For experiment [1], the target named is T1, CD22 variant lacking domain 1 (Δ1), expressed on CHO cells (human, UniProt P20273 139-847).
T1 construct: Membrane protein on stably transformed CHO cells; Numbering of full length precursor CD22beta (Wilson et al. 1991); also called CD22 lacking domain 1
T1 chain: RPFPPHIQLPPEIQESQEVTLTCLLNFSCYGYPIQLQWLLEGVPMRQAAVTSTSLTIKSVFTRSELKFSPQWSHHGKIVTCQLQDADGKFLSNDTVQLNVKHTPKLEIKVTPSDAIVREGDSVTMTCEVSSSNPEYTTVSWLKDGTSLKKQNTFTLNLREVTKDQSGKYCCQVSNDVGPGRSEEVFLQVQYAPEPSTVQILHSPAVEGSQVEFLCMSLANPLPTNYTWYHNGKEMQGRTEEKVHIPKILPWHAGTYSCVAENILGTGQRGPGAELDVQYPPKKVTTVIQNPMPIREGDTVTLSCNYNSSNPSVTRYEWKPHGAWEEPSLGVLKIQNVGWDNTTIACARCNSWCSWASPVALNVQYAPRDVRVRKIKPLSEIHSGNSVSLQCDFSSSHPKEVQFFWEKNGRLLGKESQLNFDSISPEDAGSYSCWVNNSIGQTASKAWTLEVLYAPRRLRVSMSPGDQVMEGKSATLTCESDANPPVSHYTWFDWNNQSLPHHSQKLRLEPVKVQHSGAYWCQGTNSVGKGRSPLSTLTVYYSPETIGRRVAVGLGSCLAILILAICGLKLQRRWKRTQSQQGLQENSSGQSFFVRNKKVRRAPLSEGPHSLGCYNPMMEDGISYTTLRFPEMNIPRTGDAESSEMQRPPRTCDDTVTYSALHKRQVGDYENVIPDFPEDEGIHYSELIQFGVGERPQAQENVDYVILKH
The experiment can be described thus: flow cytometry on CHO cells expressing the CD22 deletion variant; goat anti-mouse IgG Alexa 488. As for the experimental part: (§1) CD22 sequences lacking various of the seven immunoglobulin-like domains of the major CD22 isoform (CD22beta) were cloned and transformed into cells for stable expression. For example, CD22 variants lacking domain 1 (Δ1), domain 2 (Δ2), or domains 3 and 4 (Δ3,4) were cloned, transformed into CHO cells, and expressed on the cells. Control cells expressed CD22beta. Deletions were performed using Stratagene QuikChange XL™ reagent kit. Deletion of domain 1 was performed by deletion of amino acids 22-138; deletion of domain 2 was performed by deletion of amino acids 139-242; and deleted domains 3 and 4 were available as the minor isoform CD22alpha (deletion of amino acids 241-417). All amino acid numbers refer to the numbering of full length precursor CD22beta by Wilson, G. L. et al. (see FIG. 1 in Wilson, G. L. et al., J. Exp. Med. 173:137-146 (1991)). FIG. 14 is a diagram of the deleted domains. Binding was determined by flow cytometry using an isotype control. […] Binding of 5E8.1.8 was detected using biotinylated goat anti-mouse IgG plus streptavidin PE.
In general terms: A flow cytometer gives signals particle by particle.

The target of experiment [2] is T2, CD22 variant lacking domain 2 (Δ2), expressed on CHO cells (human, UniProt P20273 22-847).
T2 construct: Membrane protein on stably transformed CHO cells; Numbering of full length precursor CD22beta (Wilson et al. 1991); also called CD22 lacking domain 2
T2 chain: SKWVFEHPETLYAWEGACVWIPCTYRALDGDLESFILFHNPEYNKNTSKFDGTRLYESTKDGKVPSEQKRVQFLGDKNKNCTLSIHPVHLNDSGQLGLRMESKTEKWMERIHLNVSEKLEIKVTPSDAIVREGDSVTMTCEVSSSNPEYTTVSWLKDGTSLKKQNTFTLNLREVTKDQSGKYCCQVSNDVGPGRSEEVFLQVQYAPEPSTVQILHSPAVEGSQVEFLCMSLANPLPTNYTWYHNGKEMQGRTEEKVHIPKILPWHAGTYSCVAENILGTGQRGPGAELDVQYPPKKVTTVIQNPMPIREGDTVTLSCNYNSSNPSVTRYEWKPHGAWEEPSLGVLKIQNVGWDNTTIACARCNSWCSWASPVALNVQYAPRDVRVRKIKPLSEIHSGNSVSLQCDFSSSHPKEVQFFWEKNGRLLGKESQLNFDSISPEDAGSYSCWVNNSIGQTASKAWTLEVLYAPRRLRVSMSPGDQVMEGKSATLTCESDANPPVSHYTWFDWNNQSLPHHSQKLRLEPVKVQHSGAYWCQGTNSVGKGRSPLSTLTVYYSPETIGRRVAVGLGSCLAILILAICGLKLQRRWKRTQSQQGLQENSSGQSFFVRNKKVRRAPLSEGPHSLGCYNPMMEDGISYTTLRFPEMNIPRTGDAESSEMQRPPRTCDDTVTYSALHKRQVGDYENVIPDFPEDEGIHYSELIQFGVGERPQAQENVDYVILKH
Described as above. As to the method: as §1

B1: murine anti-human CD22 10F4.4.1 monoclonal antibody (antibody, V domains shown)
VH: QVQLQQSGPELVKPGASVKISCKASGYEFSRSWMNWVKQRPGQGREWIGRIYPGDGDTNYSGKFKGKATLTADKSSSTAYMQLSSLTSVDSAVYFCARDGSSWDWYFDVWGAGTTVTVSS
VL: DILMTQTPLSLPVSLGDQASISCRSSQSIVHSNGNTFLEWYLQKPGQSPKLLIYKVSNRFSGVPDRFSGSGSGTDFTLKISRVEAEDLGVYYCFQGSQFPYTFGGGTKVEIK
notes: Murine hybridoma antibody (ATCC PTA-7621); also called mu 10F4; Mu 10F4.4.1
As to B1, the binding result in experiment [1] and in experiment [2] was “no binding” throughout.
